In article doi:10.1101/2025.02.01.633781:

Target: FUS (recombinant, produced in-house) (UniProt P35637 1-526)
Test: EMSA

Sequence of FUS (recombinant, produced in-house) (P35637 whole entry): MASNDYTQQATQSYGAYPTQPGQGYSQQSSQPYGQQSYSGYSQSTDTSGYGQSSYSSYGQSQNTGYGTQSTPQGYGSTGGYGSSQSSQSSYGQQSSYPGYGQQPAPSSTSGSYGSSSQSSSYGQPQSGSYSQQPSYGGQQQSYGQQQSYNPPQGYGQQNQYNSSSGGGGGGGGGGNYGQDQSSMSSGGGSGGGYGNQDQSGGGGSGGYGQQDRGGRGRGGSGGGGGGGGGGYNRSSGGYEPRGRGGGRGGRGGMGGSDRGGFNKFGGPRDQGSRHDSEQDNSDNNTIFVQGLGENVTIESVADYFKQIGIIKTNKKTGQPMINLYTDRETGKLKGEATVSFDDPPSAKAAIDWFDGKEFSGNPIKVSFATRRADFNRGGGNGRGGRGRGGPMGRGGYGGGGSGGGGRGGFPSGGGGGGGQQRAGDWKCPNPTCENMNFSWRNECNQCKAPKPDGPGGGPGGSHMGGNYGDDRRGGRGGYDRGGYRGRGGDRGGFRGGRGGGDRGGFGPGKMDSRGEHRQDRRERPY

Question: Does GGACUCGGACUUGGACUCUGGACUUUGGAC (ssRNA) [4xDRACH] bind?
Answer: Result: binds
